{
  "source": "patent US20260152571A1",
  "key": {"[1]": {"molecular_target": "HLA-A2 on T2 cells without added peptide (human)", "test": "flow cytometry, T2 cells without peptide, antibody 10 µg/mL"}, "[2]": {"molecular_target": "MED13L/HLA complex on MED13L-pulsed T2 cells (human)", "test": "flow cytometry, T2 cells pulsed with 25 µM MED13L peptide, antibody 10 µg/mL"}, "[3]": {"molecular_target": "PIGQ/HLA complex on PIGQ-pulsed T2 cells (human)", "test": "flow cytometry, T2 cells pulsed with 25 µM PIGQ peptide, antibody 10 µg/mL"}, "[4]": {"molecular_target": "WT1RMF/HLA-A2 complex on cells (human)", "test": "flow cytometry, T2 cells pulsed with 25 µM WT1RMF, antibody 10 µg/mL"}},
  "data": [
    {"substance": "ISO (antibody)", "values": [
      {"measurement": "Percentage of Positive Cells (%)", "setting": "[1]", "value": 5.43, "unit": "%"},
      {"measurement": "Percentage of Positive Cells (%)", "setting": "[2]", "value": 5.38, "unit": "%"},
      {"measurement": "Percentage of Positive Cells (%)", "setting": "[3]", "value": 4.78, "unit": "%"},
      {"measurement": "Percentage of Positive Cells (%)", "setting": "[4]", "value": 4.93, "unit": "%"}
    ]}
  ]
}
